Assay results: IntAct's records for PubMed 14561633

B1: Transcription factor GLABRA 3 (Arabidopsis thaliana (Mouse-ear cress)), Q9FN69 (parent)
chain: MATGQNRTTVPENLKKHLAVSVRNIQWSYGIFWSVSASQSGVLEWGDGYYNGDIKTRKTIQASEIKADQLGLRRSEQLSELYESLSVAESSSSGVAAGSQVTRRASAAALSPEDLADTEWYYLVCMSFVFNIGEGMPGRTFANGEPIWLCNAHTADSKVFSRSLLAKSAAVKTVVCFPFLGGVVEIGTTEHITEDMNVIQCVKTSFLEAPDPYATILPARSDYHIDNVLDPQQILGDEIYAPMFSTEPFPTASPSRTTNGFDQEHEQVADDHDSFMTERITGGASQVQSWQLMDDELSNCVHQSLNSSDCVSQTFVEGAAGRVAYGARKSRVQRLGQIQEQQRNVKTLSFDPRNDDVHYQSVISTIFKTNHQLILGPQFRNCDKQSSFTRWKKSSSSSSGTATVTAPSQGMLKKIIFDVPRVHQKEKLMLDSPEARDETGNHAVLEKKRREKLNERFMTLRKIIPSINKIDKVSILDDTIEYLQELERRVQELESCRESTDTETRGTMTMKRKKPCDAGERTSANCANNETGNGKKVSVNNVGEAEPADTGFTGLTDNLRIGSFGNEVVIELRCAWREGVLLEIMDVISDLHLDSHSVQSSTGDGLLCLTVNCKHKGSKIATPGMIKEALQRVAWIC
partner: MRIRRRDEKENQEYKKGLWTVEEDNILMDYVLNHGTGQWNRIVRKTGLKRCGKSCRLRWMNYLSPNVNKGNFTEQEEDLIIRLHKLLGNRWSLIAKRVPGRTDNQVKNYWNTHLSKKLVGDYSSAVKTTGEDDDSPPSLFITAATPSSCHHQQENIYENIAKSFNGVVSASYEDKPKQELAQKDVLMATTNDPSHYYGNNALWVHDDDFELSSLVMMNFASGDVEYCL
B2: Transcription factor GLABRA 3 (Arabidopsis thaliana (Mouse-ear cress)), Q9FN69 (parent)
chain: B1 chain
partner: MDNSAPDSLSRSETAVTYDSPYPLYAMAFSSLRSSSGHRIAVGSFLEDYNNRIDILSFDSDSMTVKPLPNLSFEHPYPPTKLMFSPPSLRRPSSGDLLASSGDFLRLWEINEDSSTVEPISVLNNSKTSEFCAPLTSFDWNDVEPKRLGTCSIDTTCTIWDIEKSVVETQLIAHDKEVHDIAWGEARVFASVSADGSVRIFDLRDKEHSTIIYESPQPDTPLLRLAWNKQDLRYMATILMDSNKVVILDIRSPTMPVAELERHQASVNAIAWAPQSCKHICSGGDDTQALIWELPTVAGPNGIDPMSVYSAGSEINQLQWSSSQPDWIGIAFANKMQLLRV

Variants of: B1
Details: with gl1_arath GL1, P27900

effect of a mutation on the interaction | Variant
decreasing interaction | L78F

Variants of: B2
Details: with ttg1_arath TTG1, Q9XGN1

effect of a mutation on the interaction | Variant
decreasing interaction | L78F
